Test results from US20220098681A1 (INSERM INSTITUTE NATIONAL DE LA SANT ET DE LA RECHERCHE M …, published 2022).

T1: C-terminal HA-tagged FHL1A (human, UniProt Q13642-1 2-280)
T1 sequence: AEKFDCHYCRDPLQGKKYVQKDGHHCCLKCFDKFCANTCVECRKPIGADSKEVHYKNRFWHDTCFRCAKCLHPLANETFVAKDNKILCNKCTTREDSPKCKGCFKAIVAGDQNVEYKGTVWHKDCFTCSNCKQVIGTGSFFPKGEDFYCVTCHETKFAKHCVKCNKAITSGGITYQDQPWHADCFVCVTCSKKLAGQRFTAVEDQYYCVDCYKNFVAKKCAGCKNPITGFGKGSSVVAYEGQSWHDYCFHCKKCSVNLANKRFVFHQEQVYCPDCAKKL

T2: C-terminal HA-tagged FHL2 (UniProt Q14192 1-279)
T2 sequence: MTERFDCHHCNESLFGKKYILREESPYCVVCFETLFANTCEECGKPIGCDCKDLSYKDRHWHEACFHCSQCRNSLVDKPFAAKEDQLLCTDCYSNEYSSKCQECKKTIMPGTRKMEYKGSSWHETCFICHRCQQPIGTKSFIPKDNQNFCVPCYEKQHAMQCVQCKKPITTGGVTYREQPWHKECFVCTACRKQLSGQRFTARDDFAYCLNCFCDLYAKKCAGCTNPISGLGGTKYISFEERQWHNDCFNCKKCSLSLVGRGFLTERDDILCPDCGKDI

T3: GST-nsP3 (chikungunya virus, UniProt Q8JUX6 1334-1856)
T3 chain: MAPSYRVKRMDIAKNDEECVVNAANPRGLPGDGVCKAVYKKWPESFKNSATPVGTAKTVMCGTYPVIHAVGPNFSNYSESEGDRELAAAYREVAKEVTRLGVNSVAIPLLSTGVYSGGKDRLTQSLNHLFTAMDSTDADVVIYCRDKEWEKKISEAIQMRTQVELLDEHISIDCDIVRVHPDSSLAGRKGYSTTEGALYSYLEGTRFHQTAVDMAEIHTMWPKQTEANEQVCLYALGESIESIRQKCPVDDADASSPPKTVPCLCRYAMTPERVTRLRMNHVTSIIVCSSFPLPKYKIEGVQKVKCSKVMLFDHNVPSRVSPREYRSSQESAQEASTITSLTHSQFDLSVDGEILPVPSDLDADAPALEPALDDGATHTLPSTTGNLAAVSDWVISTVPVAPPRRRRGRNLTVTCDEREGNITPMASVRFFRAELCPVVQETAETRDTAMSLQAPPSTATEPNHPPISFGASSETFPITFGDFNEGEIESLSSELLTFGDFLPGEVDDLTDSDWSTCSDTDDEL

T4: GST-nsP3ΔHVD (chikungunya virus, UniProt Q8JUX6 1334-1657)
T4 chain: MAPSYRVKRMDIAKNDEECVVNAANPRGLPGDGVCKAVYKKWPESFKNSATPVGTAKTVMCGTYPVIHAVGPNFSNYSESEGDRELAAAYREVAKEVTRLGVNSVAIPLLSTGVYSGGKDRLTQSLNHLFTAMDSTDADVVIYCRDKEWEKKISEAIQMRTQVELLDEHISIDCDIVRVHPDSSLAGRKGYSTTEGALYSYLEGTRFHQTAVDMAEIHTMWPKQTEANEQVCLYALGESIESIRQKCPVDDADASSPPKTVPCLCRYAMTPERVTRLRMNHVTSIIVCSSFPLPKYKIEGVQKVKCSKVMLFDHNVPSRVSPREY


Experiments:
[1] = target: T1, C-terminal HA-tagged FHL1A; assay: co-immunoprecipitation, immunoblot (FIG. 4)
[2] = target: T2, C-terminal HA-tagged FHL2; assay: co-immunoprecipitation from co-transfected 293T cells
G3BP1 = G3BP1 (UniProt Q13283 2-466); assay: co-immunoprecipitation in ΔFHL1 cells
GST-nsP3 = target: T3, GST-nsP3; assay: GST pull-down with purified proteins, western blot with anti-FHL1
GST-nsP3ΔHVD = target: T4, GST-nsP3ΔHVD; assay: as above

G3BP1, sequence (Q13283 2-466 limits assumed): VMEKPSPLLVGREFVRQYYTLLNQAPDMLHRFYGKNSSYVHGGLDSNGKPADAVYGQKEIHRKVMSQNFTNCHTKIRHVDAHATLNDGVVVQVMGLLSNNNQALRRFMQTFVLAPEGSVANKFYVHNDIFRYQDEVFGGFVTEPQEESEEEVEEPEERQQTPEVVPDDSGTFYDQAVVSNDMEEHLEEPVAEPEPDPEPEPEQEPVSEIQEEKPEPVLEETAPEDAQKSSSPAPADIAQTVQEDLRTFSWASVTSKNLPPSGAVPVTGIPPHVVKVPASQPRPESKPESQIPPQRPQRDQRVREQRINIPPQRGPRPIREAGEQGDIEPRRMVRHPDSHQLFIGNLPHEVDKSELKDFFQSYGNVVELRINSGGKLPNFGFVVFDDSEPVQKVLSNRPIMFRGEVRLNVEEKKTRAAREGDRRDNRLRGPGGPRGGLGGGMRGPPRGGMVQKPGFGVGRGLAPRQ

| Binder | binding result [1] | binding result [2] | binding result (G3BP1) | binding result (GST-nsP3) | binding result (GST-nsP3ΔHVD) |
| --- | --- | --- | --- | --- | --- |
| FLAG-tagged CHIKV nsP3 (pCI-neo-3×FLAG plasmid expressing the CHIKV nsP3) (other) MAPSYRVKRMDIAKNDEECVVNAANPRGLPGDGVCKAVYKKWPESFKNSATPVGTAKTVMCGTYPVIHAVGPNFSNYSESEGDRELAAAYREVAKEVTRLGVNSVAIPLLSTGVYSGGKDRLTQSLNHLFTAMDSTDADVVIYCRDKEWEKKISEAIQMRTQVELLDEHISIDCDIVRVHPDSSLAGRKGYSTTEGALYSYLEGTRFHQTAVDMAEIHTMWPKQTEANEQVCLYALGESIESIRQKCPVDDADASSPPKTVPCLCRYAMTPERVTRLRMNHVTSIIVCSSFPLPKYKIEGVQKVKCSKVMLFDHNVPSRVSPREYRSSQESAQEASTITSLTHSQFDLSVDGEILPVPSDLDADAPALEPALDDGATHTLPSTTGNLAAVSDWVISTVPVAPPRRRRGRNLTVTCDEREGNITPMASVRFFRAELCPVVQETAETRDTAMSLQAPPSTATEPNHPPISFGASSETFPITFGDFNEGEIESLSSELLTFGDFLPGEVDDLTDSDWSTCSDTDDEL | binds | binds | binds |  |  |
| 6×His-FHL1A (other) AEKFDCHYCRDPLQGKKYVQKDGHHCCLKCFDKFCANTCVECRKPIGADSKEVHYKNRFWHDTCFRCAKCLHPLANETFVAKDNKILCNKCTTREDSPKCKGCFKAIVAGDQNVEYKGTVWHKDCFTCSNCKQVIGTGSFFPKGEDFYCVTCHETKFAKHCVKCNKAITSGGITYQDQPWHADCFVCVTCSKKLAGQRFTAVEDQYYCVDCYKNFVAKKCAGCKNPITGFGKGSSVVAYEGQSWHDYCFHCKKCSVNLANKRFVFHQEQVYCPDCAKKL |  |  |  | binds | no binding |
